PMC9627735 (RSC Chemical Biology, 2022)

How the values were obtained:
[1] = target: recombinant human wildtype Bri2 BRICHOS (human) (UniProt Q9Y287); experiment: SEC; rh Bri2 BRICHOS at pH 6.0, 20 mmol L^-1 NaPi, 0.2 mmol L^-1 EDTA (ESI Fig. S2c, d); monomer to dimer
[2] = target: recombinant human wildtype Bri2 BRICHOS (human) (UniProt Q9Y287); experiment: SEC; rh Bri2 BRICHOS wildtype and D148N at rising concentrations, 0.5 to 200 μmol L^-1 (ESI Fig. S2a, b, S3, S4); monomer to dimer
[3] = target: the molecule itself; experiment: SEC; purified rh proSP-C BRICHOS variants on Superdex 200 GL
[4] = target: the molecule itself; experiment: other fluorescence titration; Trp fluorescence of rh Bri2 BRICHOS T206W monomers, 2 μmol L^-1, 20 mmol L^-1 NaPi, 0.2 mmol L^-1 EDTA, pH 6.3-8.0; excitation 280 nm; monomer to dimer
[5] = target: the molecule itself; experiment: SEC; rh Bri2 BRICHOS wildtype and D148N at rising concentrations, 0.5 to 200 μmol L^-1 (ESI Fig. S2a, b, S3, S4); monomer to dimer
[6] = target: the molecule itself; experiment: SEC; rh Bri2 BRICHOS species obtained by thrombin cleavage of isolated NT*-Bri2 BRICHOS species; Superdex 200 PG, 200 GL or 75 PG; 20 mmol L^-1 NaPi, 0.2 mmol L^-1 EDTA

recombinant human wildtype Bri2 BRICHOS (from UniProt Q9Y287 113-231) (domain or fragment)
stoichiometry N [1]: 2
stoichiometry N [2]: 2

B1: recombinant human wildtype proSP-C BRICHOS (domain or fragment, UniProt P11686 86-197, looked up)
chain: EHLVTTATFSIGSTGLVVYDYQQLLIAYKPAPGTCCYIMKIAPESIPSLEALTRKVHNFQMECSLQAKPAVPTSKLGQAEGRDAGSAPSGGDPAFLGMAVSTLCGEVPLYYI
notes: prosurfactant protein C (proSP-C), human, BRICHOS domain, residues 86-197; Forms trimers and some monomers on SEC; also called rh wildtype proSP-C BRICHOS; wt proSP-C BRICHOS; source: E. coli Origami 2 (DE3) pLysS, purified (Ni-NTA, ion exchange); not shown: thioredoxin, N-terminal, cleaved
stoichiometry N [3]: 3

B2: recombinant human proSP-C BRICHOS D105N (domain or fragment, UniProt P11686 86-197, looked up)
chain: EHLVTTATFSIGSTGLVVYNYQQLLIAYKPAPGTCCYIMKIAPESIPSLEALTRKVHNFQMECSLQAKPAVPTSKLGQAEGRDAGSAPSGGDPAFLGMAVSTLCGEVPLYYI
notes: prosurfactant protein C (proSP-C), human, BRICHOS domain, residues 86-197, with D105N; Made by site-directed mutagenesis of the wildtype plasmid; expressed and purified in parallel with the wildtype; also called rh proSP-C BRICHOS D105N; D105N mutant; source: E. coli Origami 2 (DE3) pLysS, purified (Ni-NTA, ion exchange); not shown: thioredoxin, N-terminal, cleaved
stoichiometry N [3]: 3

B3: recombinant human Bri2 BRICHOS T206W (domain or fragment, UniProt Q9Y287 113-231, looked up)
chain: QTIEENIKIFEEEEVEFISVPVPEFADSDPANIVHDFNKKLTAYLDLNLDKCYVIPLNTSIVMPPRNLLELLINIKAGTYLPQSYLIHEHMVIWDRIENIDHLGFFIYRLCHDKETYKL
notes: integral membrane protein 2B (ITM2B, Bri2), human, BRICHOS domain, residues 113-231, with Thr206 replaced by Trp; also called rh Bri2 BRICHOS T206W; source: E. coli SHuffle T7, purified (Ni-NTA, thrombin cleavage, second Ni-NTA, SEC); not shown: His6, N-terminal, cleaved; NT*, N-terminal, cleaved
binding result [4]: binds

B4: recombinant human Bri2 BRICHOS D148N (domain or fragment, UniProt Q9Y287 113-231, looked up)
chain: QTIEENIKIFEEEEVEFISVPVPEFADSDPANIVHNFNKKLTAYLDLNLDKCYVIPLNTSIVMPPRNLLELLINIKAGTYLPQSYLIHEHMVITDRIENIDHLGFFIYRLCHDKETYKL
notes: integral membrane protein 2B (ITM2B, Bri2), human, BRICHOS domain, residues 113-231, with D148N; Occurs as monomers, dimers and large oligomers, isolated by SEC; all species are this one construct; also called rh Bri2 BRICHOS D148N; source: E. coli SHuffle T7, purified (Ni-NTA, thrombin cleavage, second Ni-NTA, SEC); not shown: His6, N-terminal, cleaved; NT*, N-terminal, cleaved
ratio of dimers to monomers at 0.5 μmol L^-1 [5]: ~1
stoichiometry N [6]: 2
